± gives the uncertainty stated by the source.
Test: protein stability index of a GFP-peptide fusion (yeast GPS) (PSI 1-4); higher = more stable; sorted into four equal gates, so the index is relative within each strain
Method in brief: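 Plasmids in a pooled yeast library fused tiled 17-residue yeast protein peptides downstream of GFP and also expressed Cherry. Mid-log cultures grown without leucine were sorted into four equal gates by GFP/Cherry fluorescence ratio. Each gate's plasmids were PCR-amplified and Illumina-sequenced, and reads were matched to strains by barcodes. The protein stability index is derived by multiplying each gate's read frequency by its gate number and summing the results.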

Sequence	protein stability index (doa10∆)	protein stability index (pdr5∆)	protein stability index (san1∆)	protein stability index (ubr1∆)
VISSGPLAAGNFVSEKG [RPC53]	2.81 ± 0.093	3.13 ± 0.11	3.14 ± 0.094	2.48 ± 0.078
AVKDQQKYTKEMIDSHI [SNF2]	2.8 ± 0.062	2.68 ± 0.051	2.38 ± 0.068	2.95 ± 0.043
VNDNDERAARVVKGRVE [RPO31]	3.17 ± 0.16	3.36 ± 0.15	3.15 ± 0.25	3.4 ± 0.091
QGPVKNTQLHGPSATDP [RGR1]	2.93 ± 0.062	3.06 ± 0.047	2.97 ± 0.053	3.02 ± 0.035
LNNTHVISSGPLAAGNF [RPC53]	2.74 ± 0.086	3 ± 0.1	2.69 ± 0.074	2.49 ± 0.049
LILQRLKDLNLTVSIKI [RGR1]	1.76 ± 0.073	1.96 ± 0.071	2.65 ± 0.072	1.98 ± 0.052
AAHYNRERIKRGAHVEK [PRP8]	–	–	2.79 ± 0.29	2.77 ± 0.19
ELGNMTMLITGQRPDRA [SIN4]	2.54 ± 0.09	2.83 ± 0.056	2.69 ± 0.09	2.31 ± 0.073
LADILKANISLETLEHN [RPO21]	2.96 ± 0.093	2.91 ± 0.1	3.11 ± 0.11	2.61 ± 0.11
ADKNCAKLHRISPKIWC [PUP1]	2.09 ± 0.055	2.1 ± 0.061	1.94 ± 0.059	2.14 ± 0.05
LTPIQKKIMDETPSRLL [ITC1]	3.33 ± 0.074	3.39 ± 0.062	3.16 ± 0.049	3.39 ± 0.039
IGDVDGLIVNPVKVSGT [POP5]	2.73 ± 0.048	3.02 ± 0.046	2.66 ± 0.035	2.64 ± 0.035
SNMLGSNEDVMMTGAEQ [RPB3]	3.47 ± 0.22	3.35 ± 0.12	3.26 ± 0.1	3.08 ± 0.089
FVWLSSEENIGSGLLKL [SWI1]	3.3 ± 0.098	3.19 ± 0.09	3.28 ± 0.067	3.38 ± 0.068
TRQFEGRSNEIVKTTTK [PRP8]	3.14 ± 0.058	3.12 ± 0.07	2.89 ± 0.055	3 ± 0.044
FDTSIKLDIISDPESER [RPN14]	2.7 ± 0.061	2.94 ± 0.082	2.59 ± 0.071	2.9 ± 0.068
NIMVTIDGCVKIGDLGL [SSN3]	3.27 ± 0.16	3.12 ± 0.14	3.5 ± 0.069	3.43 ± 0.052
FNYGKLPLPPSVEWMKV [SIN4]	2.6 ± 0.11	2.93 ± 0.093	2.93 ± 0.065	2.92 ± 0.064
LENATWTMRIEGRLLDN [SNF12]	2.64 ± 0.099	2.89 ± 0.12	2.65 ± 0.1	2.92 ± 0.066
FIRLPHWPLNWYLILSI [RGR1]	1.46 ± 0.077	1.4 ± 0.064	1.33 ± 0.23	1.37 ± 0.062
APEKDIWVGEWKEVLAH [RPO31]	2.47 ± 0.1	2.17 ± 0.082	2.16 ± 0.12	2.51 ± 0.062

Sequence	protein stability index (doa10∆)	protein stability index (pdr5∆)	protein stability index (san1∆)	protein stability index (ubr1∆)
RDEMSKAELPQWYTLQS [MED8]	2.92 ± 0.05	3.12 ± 0.043	2.87 ± 0.038	3.01 ± 0.043
TRSNPPFKRKMLLVDII [REC8]	1.9 ± 0.098	1.98 ± 0.087	2.14 ± 0.16	2.58 ± 0.061
KRPNNKTLEKLESTIAE [IRR1]	3.62 ± 0.14	3.35 ± 0.1	3.01 ± 0.096	3.31 ± 0.14
DVEVDDDFTNELKAELD [SEM1]	3.25 ± 0.13	3.55 ± 0.11	3.54 ± 0.085	3.36 ± 0.056
TYVITKNGKIYLKHNSI [RET1]	2.72 ± 0.053	2.54 ± 0.046	2.45 ± 0.067	2.64 ± 0.028
VTGFAEVGPWGSARTRW [FAS2]	2.24 ± 0.079	3.03 ± 0.086	2.73 ± 0.093	2.06 ± 0.071
NDLIVNYEDLATTQAAS [BRN1]	2.98 ± 0.07	3.09 ± 0.087	3.34 ± 0.046	3.25 ± 0.061
NQQQPPQDILSKLYLLL [SNF11]	2.09 ± 0.042	2.55 ± 0.051	2.47 ± 0.056	2.54 ± 0.045
PSLNKTINGKVNGRTKS [GAL11]	3.06 ± 0.14	3.07 ± 0.13	2.98 ± 0.14	3.11 ± 0.14
NQIADLSGKFSTIPTRE [ROX3]	2.98 ± 0.091	2.96 ± 0.093	2.81 ± 0.071	3.23 ± 0.07
NKKLIKKLSKKYNAFIA [RPL1A]	1.45 ± 0.048	1.94 ± 0.052	1.45 ± 0.12	1.88 ± 0.049
SIVLDSEHFDVNDNPDI [DIS3]	2.96 ± 0.053	3.11 ± 0.053	2.74 ± 0.093	3.1 ± 0.046
EAAKPSLSFGSGSAGAN [YJL041W/NSP1]	2.83 ± 0.11	2.81 ± 0.13	3.02 ± 0.13	3 ± 0.071
VKPQYDEIHIPAPSKPV [BRR2]	2.59 ± 0.097	2.59 ± 0.12	2.41 ± 0.084	1.83 ± 0.093
SQPFIKFLNFRPPNGIK [SSN2]	2.65 ± 0.052	2.31 ± 0.05	2.23 ± 0.06	2.4 ± 0.039
EQLSKQRDLYKRKEELV [SMC2]	2.34 ± 0.15	3.1 ± 0.19	2.67 ± 0.086	2.73 ± 0.084
IQQVVEYADNDEDKFKK [PRP28]	3.06 ± 0.072	3.03 ± 0.093	3.24 ± 0.084	3.17 ± 0.047
ASLNLLQLAPGAHLGRF [RPL4A]	3.33 ± 0.16	3.03 ± 0.15	3.18 ± 0.092	3.26 ± 0.076
QSRLFINELVLENFKSY [SMC4]	1.75 ± 0.053	2.34 ± 0.049	1.94 ± 0.078	2.27 ± 0.042
NYLNDMHDSNLQNNSDS [SKP1]	2.48 ± 0.12	2.59 ± 0.063	2.3 ± 0.08	2.7 ± 0.054
NAVISHANAAAVYFADT [SIN4]	2.03 ± 0.049	2.29 ± 0.047	2.06 ± 0.051	2.3 ± 0.034

Sequence	protein stability index (doa10∆)	protein stability index (pdr5∆)	protein stability index (san1∆)	protein stability index (ubr1∆)
SKLSKNISFYKLHVNWN [SIN4]	2.04 ± 0.076	1.79 ± 0.071	2.02 ± 0.11	2.04 ± 0.06
SSAAILGLGIAFAGSKN [RPN1]	1.35 ± 0.081	1.94 ± 0.097	2.03 ± 0.29	1.34 ± 0.092
SVFYTILRDYGPQEAAN [RPO31]	3.42 ± 0.11	3.25 ± 0.094	3.27 ± 0.071	2.88 ± 0.069
FNPQDTEENIKGETNSE [RRP45]	3.36 ± 0.26	3.19 ± 0.14	3.22 ± 0.19	3.12 ± 0.18
VAFDNINTHIETLAYNS [SNF2]	2.56 ± 0.1	2.85 ± 0.074	2.5 ± 0.063	1.99 ± 0.058
EAVELVIGLDSEHDKKR [YML103C/NUP188]	2.74 ± 0.2	3.55 ± 0.15	3.16 ± 0.18	3.37 ± 0.047
QSTPVLLNHGERAELET [RPN1]	3.03 ± 0.13	2.31 ± 0.12	2.02 ± 0.16	2.66 ± 0.078
IGIPVNKASLAQYEVLA [QCR2]	2.52 ± 0.06	2.42 ± 0.049	1.92 ± 0.088	2.81 ± 0.043
PYAVLSQFYELRDREDW [YJR042W/NUP85]	2.16 ± 0.16	–	2.31 ± 0.21	2.71 ± 0.18
SEGEQKSAEGNNIDQSL [YAR002W/NUP60]	2.98 ± 0.063	2.94 ± 0.048	2.94 ± 0.066	3.05 ± 0.065
PKYESLKLEYYNLLVKI [RPN5]	2.1 ± 0.084	1.48 ± 0.1	1.12 ± 0.3	1.24 ± 0.059
LGEEHPLQVARCTKIIK [RPT1]	2.18 ± 0.082	2.78 ± 0.073	2.75 ± 0.082	2.39 ± 0.085
NMPNCDYLTLNKVVVNL [RPN2]	2.99 ± 0.054	2.88 ± 0.061	2.58 ± 0.068	3.02 ± 0.051
EPIYGVQYKLLSISVPS [SNU114]	2.18 ± 0.12	2.76 ± 0.18	2.02 ± 0.18	3.09 ± 0.11
VCQVTKFGLLLQVSAQE [ECM29]	2.15 ± 0.061	2.15 ± 0.044	2.62 ± 0.067	1.9 ± 0.04
SGEDAEEELWNSPSKGN [YIL149C/MLP2]	3.15 ± 0.13	3.25 ± 0.084	3.28 ± 0.058	3.21 ± 0.065
VNSIALFVGTDRQLHEI [RPN14]	2.43 ± 0.079	2.46 ± 0.065	2.25 ± 0.067	2.67 ± 0.074
VPVRDGVTIEFSTNVKD [RPL9A]	1.35 ± 0.27	1.58 ± 0.26	–	–
QQQQQNTNNNDTIATSA [GAL11]	2.457 ± 0.021	2.576 ± 0.02	2.478 ± 0.021	2.603 ± 0.018
ERVPKTQLDKLRPRKDS [SMB1]	3.1 ± 0.051	3.07 ± 0.062	3.09 ± 0.032	3.17 ± 0.045
GIPTDKGPRFRKLTSQE [PRE8]	3.14 ± 0.12	3.52 ± 0.18	3.01 ± 0.25	3.46 ± 0.25

Sequence	protein stability index (doa10∆)	protein stability index (pdr5∆)	protein stability index (san1∆)	protein stability index (ubr1∆)
GIFGMDFYVVMNRPGAR [RPL11A]	1.8 ± 0.057	1.71 ± 0.064	2.49 ± 0.058	2.24 ± 0.047
SVVLTLQAFGESESTTN [RPB3]	2.42 ± 0.12	2.51 ± 0.088	1.67 ± 0.11	1.18 ± 0.052
VPNSSDQAELPNNASSH [SNF2]	2.26 ± 0.13	2.85 ± 0.21	–	2.74 ± 0.16
IVPIFQLISAVLVSMGS [YJL039C/NUP192]	–	2.39 ± 0.28	–	1.22 ± 0.091
PNKVKTEDIRIRAQNFK [RRP6]	2.75 ± 0.061	2.88 ± 0.082	2.56 ± 0.077	2.84 ± 0.039
ETKVDELRYQSHILNSH [DSN1]	2.38 ± 0.067	2.84 ± 0.057	2.79 ± 0.055	3 ± 0.05
TLQTISFLGYLRYVKQI [ISW2]	2.24 ± 0.044	1.71 ± 0.049	1.5 ± 0.094	1.96 ± 0.048
FKFSGTVSSDVFKLNPS [YLR335W/NUP2]	3 ± 0.29	–	–	–
GAGIQIIMQADLALKMG [FAS2]	1.84 ± 0.094	2.09 ± 0.065	1.73 ± 0.071	2.03 ± 0.051
QEKNFQTGIFVYQNNIT [RPB5]	2.49 ± 0.064	1.52 ± 0.064	2.88 ± 0.09	2.38 ± 0.082
HPTIYESLPQYVDFVPM [POP4]	1.72 ± 0.045	2 ± 0.048	1.81 ± 0.056	1.78 ± 0.051
VDGEAVGDEFKGYVFKI [RPS6A]	–	3.79 ± 0.18	–	–
KGPAIDELSSKELVECH [NNF1]	3.04 ± 0.055	3.13 ± 0.068	2.78 ± 0.077	2.82 ± 0.047
PAEVGRAIRSEKYGKQV [BRR2]	3.27 ± 0.22	3.15 ± 0.073	–	–
SPDKIGTFTADYSKPNL [SSN2]	2.81 ± 0.094	3 ± 0.066	2.65 ± 0.08	2.92 ± 0.064
YFSNKTSTGIIRCHRED [POP5]	2.98 ± 0.17	2.68 ± 0.1	2.62 ± 0.081	2.06 ± 0.059
LITSEMFDAFVSFYFED [SIN4]	1.94 ± 0.1	2.59 ± 0.061	1.87 ± 0.093	2.93 ± 0.081
DVQARRQFVSNVRSVIR [RPP1]	2.02 ± 0.15	2.5 ± 0.12	1.65 ± 0.23	2.44 ± 0.13
